{"source": "patent US20190040107", "key": {"[1]": {"target": "T1, astexin-3 (lassoed, full-length)", "T1 chain": "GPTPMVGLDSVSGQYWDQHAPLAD"}, "[2]": {"target": "T2, astexin-2 ΔC4 (lassoed, threaded)", "T2 chain": "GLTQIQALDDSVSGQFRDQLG"}, "unthreaded astexin-2 ΔC4": {"target": "T3, unthreaded astexin-2 ΔC4", "T3 chain": "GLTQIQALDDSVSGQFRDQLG"}, "unthreaded astexin-2 ΔC3": {"target": "T4, unthreaded astexin-2 ΔC3", "T4 chain": "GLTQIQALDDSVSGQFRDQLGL"}, "astexin-3 ΔC2": {"target": "T5, astexin-3 ΔC2", "T5 chain": "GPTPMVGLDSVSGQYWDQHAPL"}, "[3]": {"target": "T6, astexin-2 ΔC3 (lassoed, threaded)", "T6 chain": "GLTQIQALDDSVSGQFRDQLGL"}, "astexin-3 ΔC1": {"target": "T7, astexin-3 ΔC1", "T7 chain": "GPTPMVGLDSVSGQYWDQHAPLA"}, "astexin-1": {"target": "T8, astexin-1", "T8 chain": "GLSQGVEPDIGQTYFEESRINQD"}}}
{"protein": "C-terminally His-tagged AtxE2 (protein) AAREAPPVTPEVLVRLADIGTMSASETTPLLSLSPDGRYVAFQVRQADPVTNLNVFRMVVKATDGATDAIDVDVGGEYLFWTIPSWGYARNAPSGANLTIQPRWSPSGTHLAYLRQDQGRVRVWRASVKGEGASPVIEDAYDIEDVQWLDDNTLIYSGRPGFVEAEAEIEREGRRGWVYDERFHPLTGARPRVLEPISIVYQVLDLKTGTRRAATPTEVARLREKPDPLRAMVGRTTFSVSRTDPQNINAPTTLVARRGEGEPVRCDEEACQNITRMWGDETANVLYFLRREGWASNEMALYRMPADALKPVRIWHATGLLQGCERQAKRLICAQESALQPRRLVTLNLTSGQMSPLYDPNPDLSRYRLPKVERLTLRNRNGIEVFSDLVLPPDYQLGTRLPLVIVQYSSRGFLRGGTGDENPILPLATAGFAVLSFHSPRSEASYQRFTSPIAQSKAEYSNWRNRWNILHTLEDLIDDLDRRGVIDPARVGLTGLSDGATTVHFGLINSHRFAAAVTSSCCTDSFTASVMNGPRISGALKAYGIETDQADDGPFWAATSFVVNASRLDTPLLIQSADEEYLGALPGFTALQQARKPVELIIYPNEHHVKWQPAHRLAVYNRTIDWFRFWLMDQSDPAPDKAAQYDRWRALRALRQKSPSPTPAP", "values": [{"measurement": "Km", "setting": "[1]", "value": "Km equal to 131 µM"}, {"measurement": "hydrolysis (HPLC retention time, MALDI MS) after 6 hours with 860 nM AtxE2", "setting": "[1]", "value": "an increase of 18 mass units for all astexin-2 and astexin-3 species, corresponding to the addition of a water molecule via the cleavage of a single amide bond"}, {"measurement": "kcat", "setting": "[1]", "value": "kcat equal to 0.38 s^-1"}, {"measurement": "kcat/Km", "setting": "[1]", "value": "kcat/Km value for AtxE2 to be 2.9×10^3 M^-1 s^-1"}, {"measurement": "hydrolysis (HPLC retention time, MALDI MS) after 6 hours with 860 nM AtxE2", "setting": "[2]", "value": "an increase of 18 mass units for all astexin-2 and astexin-3 species, corresponding to the addition of a water molecule via the cleavage of a single amide bond"}, {"measurement": "hydrolysis (HPLC retention time) in lysate extract treated with AtxE2", "setting": "unthreaded astexin-2 ΔC4", "value": "the retention times for these unthreaded species did not change after incubation with AtxE2"}, {"measurement": "hydrolysis (HPLC retention time) in lysate extract treated with AtxE2", "setting": "unthreaded astexin-2 ΔC3", "value": "the retention times for these unthreaded species did not change after incubation with AtxE2"}, {"measurement": "hydrolysis (HPLC retention time) of purified, heat-treated peptide with 424 nM AtxE2", "setting": "unthreaded astexin-2 ΔC3", "value": "only the threaded species exhibited a change in retention time consistent with hydrolysis of the isopeptide bond"}, {"measurement": "hydrolysis (HPLC retention time, MALDI MS) after 6 hours with 860 nM AtxE2", "setting": "astexin-3 ΔC2", "value": "an increase of 18 mass units for all astexin-2 and astexin-3 species, corresponding to the addition of a water molecule via the cleavage of a single amide bond"}, {"measurement": "hydrolysis (HPLC retention time) of purified peptide with 424 nM AtxE2", "setting": "[3]", "value": "only the threaded species exhibited a change in retention time consistent with hydrolysis of the isopeptide bond"}, {"measurement": "hydrolysis (HPLC retention time, MALDI MS) after 6 hours with 860 nM AtxE2", "setting": "[3]", "value": "an increase of 18 mass units for all astexin-2 and astexin-3 species, corresponding to the addition of a water molecule via the cleavage of a single amide bond"}, {"measurement": "hydrolysis (HPLC retention time, MALDI MS) after 6 hours with 860 nM AtxE2", "setting": "astexin-3 ΔC1", "value": "an increase of 18 mass units for all astexin-2 and astexin-3 species, corresponding to the addition of a water molecule via the cleavage of a single amide bond"}, {"measurement": "hydrolysis (HPLC retention time, MS) after 6 hours with 860 nM AtxE2", "setting": "astexin-1", "value": "the retention time of astexin-1 did not shift after incubation with AtxE2 and no molecular weight difference was observed in the MS"}]}
{"protein": "His-tagged S527A mutant of AtxE2 (protein) AAREAPPVTPEVLVRLADIGTMSASETTPLLSLSPDGRYVAFQVRQADPVTNLNVFRMVVKATDGATDAIDVDVGGEYLFWTIPSWGYARNAPSGANLTIQPRWSPSGTHLAYLRQDQGRVRVWRASVKGEGASPVIEDAYDIEDVQWLDDNTLIYSGRPGFVEAEAEIEREGRRGWVYDERFHPLTGARPRVLEPISIVYQVLDLKTGTRRAATPTEVARLREKPDPLRAMVGRTTFSVSRTDPQNINAPTTLVARRGEGEPVRCDEEACQNITRMWGDETANVLYFLRREGWASNEMALYRMPADALKPVRIWHATGLLQGCERQAKRLICAQESALQPRRLVTLNLTSGQMSPLYDPNPDLSRYRLPKVERLTLRNRNGIEVFSDLVLPPDYQLGTRLPLVIVQYSSRGFLRGGTGDENPILPLATAGFAVLSFHSPRSEASYQRFTSPIAQSKAEYSNWRNRWNILHTLEDLIDDLDRRGVIDPARVGLTGLADGATTVHFGLINSHRFAAAVTSSCCTDSFTASVMNGPRISGALKAYGIETDQADDGPFWAATSFVVNASRLDTPLLIQSADEEYLGALPGFTALQQARKPVELIIYPNEHHVKWQPAHRLAVYNRTIDWFRFWLMDQSDPAPDKAAQYDRWRALRALRQKSPSPTPAP", "values": [{"measurement": "activity toward astexin-3 in vitro", "setting": "[1]", "value": "AtxE2 S527A had no activity toward astexin-3"}]}
